According to patent publication US20110091971A1, “Differentiation of Pluripotent Stem Cells” (priority 2008, published 2011):
Changes are numbered by the printed parent chain.

Legend:
Assay type in all cases: cell-based
[1] = system: H1 or H9 human embryonic stem cells; assay: Activin A bioassay: differentiation of human embryonic stem cells to definitive endoderm, cell number and SOX17 intensity by high content analysis (96-well, four days); settings: for Sox 17 Intensity % of control: control = R&D Sys Activin A 100 ng/ml on same plate;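 on Cell Number average: Raw total cell count per well from high content imaging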;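 on Sox 17 Intensity average: total fluorescence of the cell multiplied by cell area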
How it was run: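 Read-out was cell count and integrated SOX17 immunofluorescence by high-content imaging, with each well divided by the mean of the 100 ng/ml activin A control. Over the four-day culture, test samples were given in DMEM:F12 with 0.5% FCS plus 20 ng/ml Wnt3a for the first two days and in 2% FCS alone for the last two. Cells were H1 or H9 hESC clusters grown on Matrigel.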

[2] = system: Human Embryonic Stem Cells (H1 hESC line); assay: High content analysis of cell number and SOX17 expression at end of first step of differentiation (Example 12); settings: 100 ng/ml peptide, FIG. 23C-F
Protocol: (§1) Preparation of Cells for Assay: Stock Cultures of Human Embryonic Stem Cells (H1 hESC line) were maintained in an undifferentiated, pluripotent state on growth factor-reduced MATRIGEL™-coated dishes in MEF conditioned medium supplemented with bFGF (PeproTech; Cat #100-18B) with passage on average every, four days. Passage was performed by exposing cell cultures to a solution of 1 mg/ml collagenase (Invitrogen, Cat #17104-019) for five to seven minutes at 37° C. followed by rinsing the monolayer with MEF conditioned medium and gentle scraping to recover cell clusters. Clusters were centrifuged at low speed to collect a cell pellet and remove residual collagenase. Cell clusters were split at a 1:3 or 1:4 ratio for routine maintenance culture or a 1:1 ratio for immediate assay. All human ES cell lines were maintained at passage numbers less than 50 and routinely evaluated for normal karyotypic phenotype and for absence of mycoplasma contamination.
(§2) Cell clusters were evenly resuspended in MEF conditioned medium supplemented with 8 ng/ml bFGF and seeded onto growth factor-reduced MATRIGEL™-coated 24-well, black wall culture plates (Arctic White; Cat #AWLS-303012) in volumes of 0.5 ml/well. Daily feeding was conducted by aspirating spent culture medium from each well and replacing with an equal volume of fresh medium. Plates were maintained at 37° C., 5% CO2 throughout the duration of assay.
(§3) Assay: The assay was initiated by aspirating culture medium from each well and adding back an aliquot (0.5 ml) of test medium. Test conditions for the first step of differentiation were conducted over a three-day period, feeding daily by aspirating and replacing the medium from each well with fresh test medium. Concentrated supernatants of the ACTN peptides were evaluated for protein concentration using a DuoSet ELISA kit for human activin A (R&D Systems; Cat #DY338), as previously described in Example 11. On the first day of assay, ACTN peptides were diluted to a final concentration of 100 ng/ml in RPMI 1640 medium (Invitrogen; Cat #: 22400) with 2% Albumin Bovine Fraction V, Fatty Acid Free (FAF BSA) (MP Biomedicals, Inc; Cat #152401), 8 ng/ml bFGF, and 20 ng/ml Wnt3a (R&D Systems; Cat #1324-WN/CF) and then added to the assay wells. On the second and third day of assay, ACTN peptides were diluted into RPMI 1640 medium supplemented with 2% fatty acid free BSA and 8 ng/ml bFGF, without any Wnt3a and then added to the assay wells. A positive control sample included a commercial source of activin A (PeproTech; Cat #12 0-14) diluted in culture medium with growth factors as indicated. At the conclusion of three days culture, cells from some wells were harvested for analysis by flow cytometry to evaluate levels of CXCR4, a marker of definitive endoderm formation. […]

[3] = system: Human Embryonic Stem Cells (H1 hESC line); assay: FACS analysis of CXCR4 at conclusion of first step of step-wise differentiation (Example 12); settings: 100 ng/ml peptide, end of first step (three days), FIG. 23A, 23B
Protocol: as §1, §2, §3

[4] = supernatant concentration 1x, assay dilution 1:20
[5] = supernatant concentration 10x, assay dilution 1:20
[6] = supernatant concentration 10x, assay dilution 1:40

## activin A [reference compound]
[1]; Wnt3a omitted from treatment on days 1 and 2
  SOX17 expression: failed to produce measurable SOX17 expression
[1]; commercial activin A (Peprotech), 20 ng/ml Wnt3a on days 1 and 2, four days
  Optimal activin A effects for induction of SOX17 expression (concentration range): 100 to 200 ng/mL
[1]; commercial activin A (Peprotech), two-fold dilution curve, 20 ng/ml Wnt3a on days 1 and 2, four days
  EC50 for induction of SOX17 expression: 0.03 to 0.05 µg/mL
[2]
  cell number and SOX17 expression (high content analysis): equivalent results
[3]
  CXCR4 expression (FACS): equivalent and robust CXCR4 expression

B1: ACTN22: activin A variant peptide, SEQ ID 23 (protein)
chain: GLECDGKVNLCCKKQDFVSFKDIGWNDWIIAPSGYHANRCDGLCPSHIAGTSGSSLSFHSTVINHYRMRGHSPFALMGACCIPTKLRPMSMLYYDDGQNIIKKDIQNMIVEECGCS
[1]; [4]
  Cell Number average: 9909
  Sox 17 Intensity average: 1.32E+05
  Sox 17 Intensity % of control: 0.4%
[1]; [5]
  Cell Number average: 8745
  Sox 17 Intensity average: 3.69E+05
  Sox 17 Intensity % of control: 1.3%
[1]; [6]
  Cell Number average: 9568
  Sox 17 Intensity average: 3.76E+05
  Sox 17 Intensity % of control: 1.3%

B2: ACTN28: activin A variant peptide, SEQ ID 29 (protein)
chain: B1 chain with L10Y, D16L, R39H, D41S, L43K, L76N, A79S
[1]; [4]
  Cell Number average: 7411
  Sox 17 Intensity average: 3.70E+06
  Sox 17 Intensity % of control: 12.6%
[1]; [5]
  Cell Number average: 12587
  Sox 17 Intensity average: 4.87E+07
  Sox 17 Intensity % of control: 165.7%
[1]; [6]
  Cell Number average: 10116
  Sox 17 Intensity average: 3.57E+07
  Sox 17 Intensity % of control: 121.5%

B3: ACTN23: activin A variant peptide, SEQ ID 24 (protein)
chain: B1 chain with L10Y, R39K, L43K, A75S, L76D, A79S
[1]; [4]
  Cell Number average: 6831
  Sox 17 Intensity average: 2.89E+04
  Sox 17 Intensity % of control: 0.1%
[1]; [5]
  Cell Number average: 10482
  Sox 17 Intensity average: 1.63E+05
  Sox 17 Intensity % of control: 0.6%
[1]; [6]
  Cell Number average: 8184
  Sox 17 Intensity average: 1.47E+05
  Sox 17 Intensity % of control: 0.5%

B4: ACTN32: activin A variant peptide, SEQ ID 33 (protein)
chain: B1 chain with D41G, L43K, A75S, L76N, A79S
[1]; [4]
  Cell Number average: 16166
  Sox 17 Intensity average: 9.11E+04
  Sox 17 Intensity % of control: 0.3%
[1]; [5]
  Cell Number average: 14330
  Sox 17 Intensity average: 3.97E+04
  Sox 17 Intensity % of control: 0.1%
[1]; [6]
  Cell Number average: 11619
  Sox 17 Intensity average: 3.43E+05
  Sox 17 Intensity % of control: 1.2%
